Source: patent US7524498
Several values for one entry are separate records, joined by “and”; a condition that tells them apart may be missing. Identical values can stand only once. Like-named read-outs stand apart in the source and are kept apart here.

Columns and labels:
BAT-1 antigen (human) [1] = assay: flow cytometry on human PBL of normal donors, 4° C. 1 hr, gated lymphocytes
BAT-1 antigen (human) [2] = assay: flow cytometry on PBL of a prostate cancer patient, CD8+ cells
BAT-1 antigen (human) [3] = assay: flow cytometry on PBL of a prostate cancer patient, CD4+ cells
BAT-1 antigen (human) [4] = assay: flow cytometry on human PBL of a selected normal donor, hBAT+ CD4+ cells
BAT-1 antigen (human) [5] = assay: flow cytometry on non-adherent PBL of a normal donor
BAT-1 antigen (human) [6] = target: BAT-1 antigen (human)
BAT-1 antigen (human) [7] = assay: flow cytometry on non-activated human CD4+ T cells
BAT-1 antigen (human) [8] = assay: flow cytometry on human PBL of a selected normal donor, hBAT+ CD8+ cells
BAT-1 antigen (human) [9] = assay: flow cytometry on PBL of a prostate cancer patient, B cells
BAT-1 antigen (human) [10] = assay: flow cytometry on non-adherent PBL of a normal donor, within CD20+ B cells
BAT-1 antigen (human) [11] = assay: flow cytometry on non-adherent PBL of a normal donor, within CD19+ B cells
BAT-1 antigen (human) [12] = assay: flow cytometry on human PBL of a selected normal donor, within CD8+ cells
BAT-1 antigen (human) [13] = target: BAT-1 antigen (human); remark: listed apart in the source
BAT-1 antigen (human) [14] = target: BAT-1 antigen (human); remark: listed apart in the source
BAT-1 antigen (human) [15] = assay: flow cytometry on human PBL of a selected normal donor, within CD4+ cells
BAT-1 antigen (human) [16] = assay: flow cytometry on human PBL of a selected normal donor

humanized BATRHC/BATRκD γ1 mAb (antibody)
% of cells binding (BAT-1 antigen (human) [1]): 20% | % of CD8+ cells bound (BAT-1 antigen (human) [2]): 60% | % of CD4+ cells bound (BAT-1 antigen (human) [3]): 39% | % of PBL positive (CD4+ cells) (BAT-1 antigen (human) [4]): 25% | % of lymphocytes positive (BAT-1 antigen (human) [5]): 25% and 29% | IC50 (BAT-1 antigen (human) [6]): 10 µg/mL | % of CD4+ cells binding (BAT-1 antigen (human) [7]): 17% and 20% | % of PBL positive (CD8+ cells) (BAT-1 antigen (human) [8]): 15% | % of B cells bound (BAT-1 antigen (human) [9]): 68% | % of CD20+ cells positive (BAT-1 antigen (human) [10]): 70% | % of CD19+ cells positive (BAT-1 antigen (human) [11]): 75%

B1: humanized BATRHC/BATRκD γ1 mAb (antibody, V domains shown)
VH: QVQLVQSGSELKKPGASVKISCKASGYTFTNYGMNWVRQAPGQGLQWMGWINTDSGESTYAEEFKGRFVFSLDTSVNTAYLQITSLTAEDTGMYFCVRVGYDALDYWGQGTLVTVSS
VL: EIVLTQSPSSLSASVGDRVTITCSARSSVSYMHWFQQKPGKAPKLWIYRTSNLASGVPSRFSGSGSGTSYCLTINSLQPEDFATYYCQQRSSFPLTFGGGTKLEIK
% of CD8+ cells binding (BAT-1 antigen (human) [12]): 71% | Signal Strength (BAT-1 antigen (human) [13]): 0 | % of CD4+ cells binding (BAT-1 antigen (human) [14]): 52% and 77% | % of CD4+ cells binding (BAT-1 antigen (human) [15]): 58% | % of cells positive (BAT-1 antigen (human) [16]): 50%
